Reference: the supplement of paper PMC9170038

Test system: MS2 coat protein
Assay: apparent KD of MS2 coat protein; higher = weaker reporter binding
Details: Eterna round: R107
Description: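 RNA-MaP round R107: designed RNA switches with theophylline, tryptophan, arginine or FMN aptamers are transcribed on-chip within common flanks. They are titrated with SNAP-549-labelled MS2 coat protein in RNA-MaP buffer (100 mM Tris pH 7.5, 80 mM KCl, 4 mM MgCl2), without ligand or with the indicated ligand. Median apparent KD per design.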

[1] = input ligand: theophylline 20 uM
[2] = input ligand: theophylline 2 mM
[3] = input ligand: tryptophan 2.4 mM

Sequence	apparent KD of MS2 coat protein (input ligand: arginine 13.2 mM) [nM]	apparent KD of MS2 coat protein [1] [nM]	apparent KD of MS2 coat protein [2] [nM]	apparent KD of MS2 coat protein (input ligand: none) [nM]	apparent KD of MS2 coat protein [3] [nM]
ACAUGAGGAUCACCCAUGUGCAUGAUGAUCCGAGGACCGGUACGGCCGCCACUCGUCAUGAUGAUCUUUCAUGUUUGUCGCGCGC [Flamini II]	62.6	326	422	–	–
ACAUGAGGAUCACCCAUGUGGCGACUUGAUACCAGACCCGCACUAGUCCCUUGGCAGCAACUACGUGAGGGUCACCCAUGUGAAG [vndullin]	35.5	29.3	28.9	20	18.3
ACAUGAGGAUCACCCAUGUGGCGACUUGAUACCAGACCCGCACUAGUCCCUUGGCAGCAACUACGUGUGGGACACCCAUGUUAAG [lplmullin]	17.3	22.7	–	–	16
ACAUGAGGAUCACCCAUGUUAAGCACAGAAGGAGCGUGAAGAAACACAGGUAGGUCGCUGUACUUAUCGAGCGUUAGCUCGAUAC [JR_Nu_SSArginiA_Sub029]	13.7	29	26.4	23.1	20.9
ACAUGAGGAUCACCCAUGUUCCUCAUUGAUACCAGUGAAAGAAGACGCCCUUGGCAGCGAGAAGAAGAAGAAGAAGAAGAAGAGG [6.A]	48.4	425	671	725	588
ACAUGAGGAUCACCCAUGUUCCUCAUUGAUACCAGUGAAAGAAGACGCCCUUGGCAGCGAGAAGAAGAAGAAGAAGUUUUUUUUU [6.B]	209	770	–	–	917
ACAUGAGGAUCACCCAUGUUCCUCGCCGAUACCAGUGAAGAAGAACGCCCUUGGCAGCGGAAAGAAUAUAUUGGAGAUGAUAUAU [6.U]	111	252	–	–	225
ACAUGAGGAUCACCCAUGUUCCUCGCCGAUACCAGUGAAGAAUUACGCCCUUGGCAGCGGAAAGAGUAUUUUGGAGAUGAGGUAC [6.Z]	51.7	127	–	–	66
ACAUGAGGAUCACCCAUGUUUGAUGUUCCUCGAGGACCGGUACGGCCGCCACUCGAACGAGUGGCGCGCGAGUGCGCACUCGCGC [aSa]	11.3	20.1	13	–	–
ACAUGGGUCUGAAGGAGCGCGAUAACAUGAGGAUCACCCAUGUAAAGUGGAACAUGAUAAUCGCAGGUAGGUCGCAGUAAAACCC [#26 Same State - Arginine B]	81.6	293	476	412	328
ACAUUUAACUGAAGGAGCGUGAUAUUUACAUGAGGAUCACCCAUGUCUUUCAUGAAUAAUUCACAGGUAGGUCGCAGACUAAUGA [JR_ExcArginiB_Sub007]	96.8	159	158	116	129
ACAUUUAACUGAAGGAGCGUGAUUUCUACAACAUGAGGAUCACCCAUGUUCAUUACUCAUUCACAGGUAGGUCGCAGACUAAUGA [JR_SSArginiB_Sub031]	20.9	26.8	23.5	20.2	21
ACCAUGUAAUCAGAUACCAGACAUCUUUUAAAUCAUAUUACAUGAGGAUCACCCAUGUUGGUCCCUUGGCAGCUGAAAUAUUUUU [JR_Nu_SSTheophyB_Sub026]	110	212	–	–	303
ACCUCACUCUCUGAUACCAGCUAACAACAUGAGGAUCACCCAUGUCAGACUUGUAUUGAUAGCCCUUGGCAGCAGAGGUAACUGC [#16 Exclusion-TheophyllineB]	13.9	21.2	–	–	16.8
ACCUGCGUUUGAUAAAAUCAGACGCAGGUUCGAGGACCGGUACGGCCGCCACUCGGACAUGAGGAUCACCCAUGUUUGACAUGGG [#05 Exclusion Tryptophan A]	168	301	746	–	–
ACCUGUACGAAAAGUGCAGGACACGGAAUACGAGGACCGGUACGGCCGCCACUCGGAAACCUGAGGAUCACCCUGGUAAACCGUG [TrypAS 12 #AlternativeMS2 #Zipper #StaticStem]	26.9	33.5	31.1	25.2	23.3
ACGAACGAUAGCGAUACCAGACGUACAUGAGGAUCACCCAUGUUUUGGGUAAGGUUAAUAGUCCCUUGGCAGCGCUUUAAGUUCG [#10 Exclusion-TheophyllineB]	50.5	89.7	–	–	59
ACGACAUGAGGAUCACCCAUGUGUACUGAAGGAGCGGCGGAAACGCCAGGUAGGUCGCAGUACACCUCAACCAGCGGUCCUAAGU [EAA NP+V+V2 #2]	27	78.4	107	64.1	64.3
ACGCACAUGAGGAUCACCCAUGUGAACCUACGAGGACCGGUACGGCCGCCACUCGCUGUUCCUACCGGCUUAAUUGUCACUGGGU [theeternabot_sameState_MS2_Trp_A_19]	27.3	54.4	49	–	–

Sequence	apparent KD of MS2 coat protein (input ligand: arginine 13.2 mM) [nM]	apparent KD of MS2 coat protein [1] [nM]	apparent KD of MS2 coat protein [2] [nM]	apparent KD of MS2 coat protein (input ligand: none) [nM]	apparent KD of MS2 coat protein [3] [nM]
ACGCCCAGGUAGGCUUAAUGGGAAAUGGAAGGAGCGCUGAUGCAAGCAGGUAGGUCGCCAACGAACAUGAGGAUCACCCAUGUAA [Same State - Arginine A (Freestyle 2)]	16.3	28.2	23.8	22.3	20.7
ACGCUGAUUGAUUACAAUCAGCGAAAAGAUACCAGCCUGGAUAUCGGCCCUUGGCAGCUUAAACCUGAGGAUCACCCUGGUAAAA [TheoAS 13 #MS2Right #BothOrNeither #AlternativeMS2]	100	126	72.9	93.6	147
ACGGAGAUGUCGGCCGCCACUGAACUCAUGUUCAACAUGAGGAUCACCCAUGUACCUUAGUUUAUCAGGACCGGGACAUAUACGA [JR_ExcTryptoB_Sub003]	79.7	170	183	–	–
ACGGUUGGUUCGUUACCUCAUAUCUCAGAAGGAGCGGGCAGUAGUCCAGGUAGGUCGCUGGGACAUGAGGAUCACCCAUGUCUUA [Aataer]	22.4	139	211	103	166
ACGUAAUGCAGAAGGAGCGUCUUAUUAAUACAUGAGGAUCACCCAUGUUAUAUUUAUGGUAGACAGGUAGGUCGCUGAAGUACGA [JR_SSArginiB_Sub008]	8.86	17.3	13.2	11.8	10.7
ACGUCCGGAUUAAUCGUGGGCAUGGUCGAUACCAGUAUUUUAAUCUACCCUUGGCAGCGACAUGAGGAUCACCCAUGUGCGAUGA [XTheo A #18]	14.3	23	–	–	16.9
ACGUUGAAGUCGGCCGCCACUGAUUUCAUGUUCAACAUGAGGAUCACCCAUGUACCUUAUGUUAACAGGACCGGGACGUAUACGA [JR_SSTryptoB_Sub002]	264	341	551	–	–
ACGUUUUAGUCGGCCGCCACUGAUCUCAUGUUCAACAUGAGGAUCACCCAUGUACCUUUUUUUAUCAGGACCGGGACGUAAUAGA [JR_SSTryptoB_Sub005]	85	328	359	–	–
ACUACAAAGUAGUAUAUACGAAAGUAUAGACGAGGACCGGUACGGCCGCCACUCGGUACCGGAAACACAUGAGGAUCACCCAUGU [Ex_TrypA - 3H]	17	25	23	–	–
ACUAGUUGUGCAGAUACCAGGCAUGAGGAUCACCCAUGUUUGGGAUGUUCGCAUCUUCCUGUCCCUUGGCAGCUGUACAUCUAGA [Omei Theo B Exc v6]	49.9	167	31.5	48.5	150
ACUCGGUGUUUGUUGCUCCGAGUGUAUGAUACCAGUCAGUUUUAUGGCCCUUGGCAGCAUAGGACAUGAGGAUCACCCAUGUGUU [#01 SameState-TheophyllineA]	32.9	49	33.8	44.9	50.8
ACUCUGUCGGGUGAUACCAGCCUCGGCACAUCUCGCGCCGAACAUGAGGAUCACCCAUGUGGCCCUUGGCAGCACAUGACAAAUC [Rimalearve]	64.1	618	–	–	512
ACUUCAUGAGGUGAUACCAGCCAAUGACAUGAGGACAUGAGGAUCACCCAUGUUUAUGUAGGCCCUUGGCAGCACUGUAACAUGA [Same State Theophylline B 4]	19.5	31.8	–	–	19.7
ACUUGAUACUGAAGGAGCGUCGGAUAAACUCGCACAUGAGGAUCACCCAUGUAUAUGAAUCGACAGGUAGGUCGCAGUAUCGAGU [Arg B SS t6]	13	19.7	15.6	13.6	15.3
ACUUUGUCGGGUGAUACCAGCCUCGGCACAUCUCGUGCCGAACAUGAGGAUCACCCAUGUGGCCCUUGGCAGCACAUGACAACUC [Quceanteri]	145	637	–	–	608
AGAAUACAUGUUUUAAUACGGUUUACUGAUACCAGUGUAUCUAUUCACCCUUGGCAGCAGAGACAUGAGGAUCACCCAUGUAUUA [JR_Nu_ExcTheophyA_Sub022]	25	41.7	–	–	46.1
AGAAUAUAGUCGGCCGCCACUCUACAUACAUGAGGAUCACCCAUGUUUACAUAGUGAAUAUACAUGAGGACCGGGACAUAGGCAU [JR_SSTryptoB_Sub020]	21.6	26.1	23.7	–	–
AGACAUGAGGAUCACCCAUGUAGCACGGAUACCAGAUCCAGAUGUAUCCCUUGGCAGCUGUGGUACAGCGUUGCAACGCUCCUAG [Exclusion - Theophylline A (Freestyle 17)]	17.6	28.5	–	–	18.1
